Molecular target: T1, LsrR (Escherichia coli DCM5 (mammary pathogenic)) (UniProt Q8XAY6)
T1 sequence: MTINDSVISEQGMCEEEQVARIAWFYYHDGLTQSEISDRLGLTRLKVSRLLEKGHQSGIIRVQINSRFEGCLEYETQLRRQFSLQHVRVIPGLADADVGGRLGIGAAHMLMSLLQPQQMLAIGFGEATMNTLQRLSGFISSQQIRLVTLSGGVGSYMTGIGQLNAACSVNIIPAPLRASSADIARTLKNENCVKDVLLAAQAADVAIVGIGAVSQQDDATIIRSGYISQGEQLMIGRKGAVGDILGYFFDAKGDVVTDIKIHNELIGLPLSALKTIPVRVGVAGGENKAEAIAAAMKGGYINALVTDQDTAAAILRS
Test: EMSA
Conditions: 5x binding buffer (4 µL) […]

TCCGCAAAAGTTCACGTTGGCTTTAGTTATTCGAGTTGAGAAACTCTCGAAACGGGCAGTGACTTCAAGGGTTAAAAGAGGTGCCGCTCCGTTTCTGTGAGCAATTATCAGTCAGAATGCTTGATAGGGATAATCGTTCATTGCTATTCTACCTATCGCCATGAACTATCGTGGCGATGGAGGATGGATA (double strand) [p-oxyR]
binding: no binding
